Stoichiometry N data for 1 substance are collected here from publication PMC2559947.

The target in assay [1] is C326A pea porphobilinogen synthase (pea (Pisum sativum)). The experiment in a line: AUC.
Assay [2] has the same target. Briefly: native gel or EMSA. Background: Mobility shift assays separate free from complexed probe on a gel.
Assay [3] shares this target. Briefly: AUC. This is another data set of the same source.
Assay [4] shares this target. The experiment in a line: AUC. This is another data set of the same source.

As a reminder, the stoichiometry N is the number of molecules, sites or subunits per partner or assembly.

Values joined by “and” are separate entries in the source; they are usually repeats but may differ in a detail not shown here. Equal values may be shown once.

As to “C326A pea porphobilinogen synthase (enzyme)”, the stoichiometry N in assay [1] is 8 and 6; in assay [2] it was 8; in assay [3] it was 8; in assay [4], 6 and 8.
